± gives the standard deviation.

The series in a line: protein stability index of a GFP-peptide fusion (GPS, HEK-293T) (PSI 1-6); higher = more stable. To be noted: c terminus: a fixed tail appended.
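Further: 24-mer peptide tiles fused after GFP, lentivirally expressed, FACS-sorted into six equal bins by GFP/DsRed ratio, decoded by Illumina sequencing, PSI is the read-weighted mean bin number.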

With TLSASSSAGGSRTPAMSSSSSSRV [TFE3], the protein stability index (treatment: DMSO) was determined as 4.57 ± 0.46 and the protein stability index (treatment: MLN4924 1 uM, 8 h) turned out to be 4.96 ± 0.25.
The corresponding values for TLSTIEFQREALENSHTNTEVLRN [CHMP4C] are 4.66 ± 0.14 and 4.92 ± 0.19.
Sequence TNEKALEAVFGKYGRIVEVLLMKD [RBMX] came in with a protein stability index (treatment: DMSO) of 1.97 ± 0.46 and a protein stability index (treatment: MLN4924 1 uM, 8 h) of 2.15 ± 0.29.
The corresponding values for TNKFYMLDSRSTDRVLQWERIDCQ [KLHDC2] are 2.43 ± 0.36 and 2.8 ± 0.58.
The corresponding values for TPSLLRFALASLLQSAPDVKGRVR [ZSWIM9] are 2.5 ± 0.16 and 2.53 ± 0.34.
With TQEKKAESKEPIEEEPTGAGLNKD [SDE2], the protein stability index runs as follows: (treatment: DMSO) 5.65 ± 0.12; (treatment: MLN4924 1 uM, 8 h) 5.41 ± 0.28.
With TQGCHPAWEPRSESQASRKEEGLP [ZNF8], the protein stability index is, setting by setting: (treatment: DMSO) 4.89 ± 0.25; (treatment: MLN4924 1 uM, 8 h) 4.96 ± 0.18.
As to TQHFVQENYLEYRQVPGSDPACYE [MAGEA3], the protein stability index is 4.26 ± 0.081 (treatment: DMSO) and 4.34 ± 0.12 (treatment: MLN4924 1 uM, 8 h).
The corresponding values for TQLKIENNPFAKGFRGSDDMELHR [TBX5] are 4.04 ± 0.25 and 4.02 ± 0.67.
The corresponding values for TQQWTAICPLKERRFGAVACGVAM [GAN] are 2.83 ± 0.37 and 2.52 ± 0.55.
The corresponding values for TRIMIGLTLVFFVQITGQPNILFY [SLC2A12] are 3.16 ± 0.61 and 3.27 ± 0.35.
Turning to TRKINNSFLRDHSYATEADIISTV [PPP2R2B], the protein stability index is, setting by setting: (treatment: DMSO) 3.32 ± 0.14; (treatment: MLN4924 1 uM, 8 h) 3.32 ± 0.12.
The corresponding values for TRYHLQQARRQQVKQYLSTTLGPK [TFE3] are 3.21 ± 0.15 and 3.29 ± 0.2.
On the same counts, the results for TSLEITILTSQPGKEVVKQLEEGL [M1AP] are 2.74 ± 0.22 and 2.68 ± 0.2.
On the same counts, the results for TSNSDDNMLKNIELFDKLSLRFNG [KCTD10] are 3.07 ± 0.3 and 3.18 ± 0.39.
With TSPAKDSLSFEDFLDLLSVFSDTA [CIB1], the protein stability index by setting is: (treatment: DMSO) 2.28 ± 0.1; (treatment: MLN4924 1 uM, 8 h) 2.45 ± 0.27.
On the same counts, the results for TSRTQVYKPPALKKSNSPGTASSG [ZC2HC1A] are 4.42 ± 0.15 and 4.46 ± 0.17.
The corresponding values for TTGIVETHFTFKDLHFKMFDVGGQ [GNAI1] are 2.08 ± 0.35 and 2.27 ± 0.14.
The corresponding values for TTLGPKLASQALTPPPGPASAQPL [TFE3] are 4.4 ± 0.48 and 4.4 ± 0.18.
Take TVEERQTGMWWRHLVAGGGAGAVS [SLC25A25]: the protein stability index runs as follows: (treatment: DMSO) 2.98 ± 0.39; (treatment: MLN4924 1 uM, 8 h) 2.96 ± 0.43.
In the case of TVEPGKLDVGATEGQDLQHISNQK [DRICH1], the protein stability index by setting is: (treatment: DMSO) 5.43 ± 0.23; (treatment: MLN4924 1 uM, 8 h) 5.4 ± 0.4.
The corresponding values for TVLTRSLFLGRILSLTSSASRLLT [FANCE] are 2.72 ± 0.13 and 2.81 ± 0.2.
The corresponding values for TWKSGKQTMLSHYRPFYVNKGNGI [TRIM29] are 2.36 ± 0.41 and 2.4 ± 0.2.
On the same counts, the results for TYLCERCQPRNLDKERAVLLQRRK [KMT2E] are 2.57 ± 0.48 and 3.32 ± 0.54.
Consider VACFLTRGDLWISWEEGMKVFEEL [CRY1], for which the protein stability index (treatment: DMSO) was determined as 2.67 ± 0.71 and the protein stability index (treatment: MLN4924 1 uM, 8 h) was determined as 2.33 ± 0.39.
The corresponding values for VAGEGVRRKGEMGLSAEDGVWAVI [TRIM15] are 2.51 ± 0.22 and 2.55 ± 0.2.
The corresponding values for VARILIDLCSDVNVCSLLAQTPLH [RIPK4] are 2.65 ± 0.26 and 2.57 ± 0.4.
The corresponding values for VASGLQFDVETRHVFIGDHSGQVT [WDFY2] are 2.91 ± 0.54 and 3.12 ± 0.46.
Take VAVALRKPDGSRHQDVPSQDDSKP [AASDHPPT]: the protein stability index is, setting by setting: (treatment: DMSO) 5.15 ± 0.26; (treatment: MLN4924 1 uM, 8 h) 5 ± 0.17.
On the same counts, the results for VCALSALPAGPLPAPLLVLCPSRA [PLEKHN1] are 2.12 ± 0.2 and 2.18 ± 0.16.
On the same counts, the results for VCVRAHESVVKSEDFSLPAYMDRR [COX4I1] are 3.1 ± 0.43 and 3.14 ± 0.24.
On the same counts, the results for VDKDQPSILNSCEDPVPGMLFFLP [FBXO34] are 3.32 ± 0.39 and 3.02 ± 0.36.
Turning to VDLNRNFPDLNTYIYYNEKYGGPN [CPN1], the protein stability index (treatment: DMSO) stood at 2.64 ± 0.18 and the protein stability index (treatment: MLN4924 1 uM, 8 h) is 2.53 ± 0.52.
The corresponding values for VEFDVLPAFDALGQLTGGYKPNPQ [OAS1] are 2.85 ± 0.27 and 2.9 ± 0.21.
On the same counts, the results for VEGKGNGIKTVIVNMVDVAKALNR [EIF5] are 2.14 ± 0.21 and 2.22 ± 0.31.
On the same counts, the results for VETELQRRNEETPEEGQQPWLCGE [GDAP1] are 5.38 ± 0.1 and 5.5 ± 0.15.

Values taken from the supplement of paper PMC10567573.
